Biological target: P301S tauRD-mEOS3.2 (human)
Experiment: FRET or BRET

- percent FRET-positive cells (100 nM recombinant tau fibrils): 74%
Substance: P301S tauRD-mEOS3.2 (domain or fragment)
